Data on one molecule can be found in paper PMC12221289, “Armless hairpin-like tRNAs in Romanomermis culicivorax: Evolutionary adaptation of a mitochondrial elongation factor EF-Tu”.

Common to all, as to assay: DRaCALA; GTP; DRaCALA of EF-Tu:GTP:Phe-tRNA ternary complexes, 2 ul spotted on nitrocellulose, n>=3; binding buffer, pH and temperature not in the material
In data set [1] the target is Bta mt-EF-Tu D384A (Bos taurus, UniProt P49410 44-452, D384A).
Data set [2] addresses Bta mt-EF-Tu (Bos taurus, UniProt P49410 44-452).
For data set [3], the target named is Bta mt-EF-Tu D384K (Bos taurus, UniProt P49410 44-452, D384K).

B1: Phe-tRNAPhe (canonical) (structured_RNA)
RNA: GCGGAUUUAGCUCAGUUGGGAGAGCGCCAGACUGAAGAUCUGGAGGUCCUGUGUUCGAUCCACAGAAUUCGCACCA
modifications: 3'-aminoacylated with Phe (flexizyme)
B1: the dissociation constant Kd was found to be 11.5 nM in data set [1], 5.8 nM in data set [2] and 76.6 nM in data set [3].
